Measurements as given in patent US20110124571A1 (INSTITUT PASTEUR, published 2011).

Biological target: Recombinant human NEP (neutral endopeptidase, EC 3.4.24.11), devoid of its N-terminal cytosol and … (human, UniProt P08473 52-750)
Assay: cell-based or functional assay

Sequence of Recombinant human NEP (neutral endopeptidase, EC 3.4.24.11), devoid of its N-terminal cytosol and … (P08473 52-750): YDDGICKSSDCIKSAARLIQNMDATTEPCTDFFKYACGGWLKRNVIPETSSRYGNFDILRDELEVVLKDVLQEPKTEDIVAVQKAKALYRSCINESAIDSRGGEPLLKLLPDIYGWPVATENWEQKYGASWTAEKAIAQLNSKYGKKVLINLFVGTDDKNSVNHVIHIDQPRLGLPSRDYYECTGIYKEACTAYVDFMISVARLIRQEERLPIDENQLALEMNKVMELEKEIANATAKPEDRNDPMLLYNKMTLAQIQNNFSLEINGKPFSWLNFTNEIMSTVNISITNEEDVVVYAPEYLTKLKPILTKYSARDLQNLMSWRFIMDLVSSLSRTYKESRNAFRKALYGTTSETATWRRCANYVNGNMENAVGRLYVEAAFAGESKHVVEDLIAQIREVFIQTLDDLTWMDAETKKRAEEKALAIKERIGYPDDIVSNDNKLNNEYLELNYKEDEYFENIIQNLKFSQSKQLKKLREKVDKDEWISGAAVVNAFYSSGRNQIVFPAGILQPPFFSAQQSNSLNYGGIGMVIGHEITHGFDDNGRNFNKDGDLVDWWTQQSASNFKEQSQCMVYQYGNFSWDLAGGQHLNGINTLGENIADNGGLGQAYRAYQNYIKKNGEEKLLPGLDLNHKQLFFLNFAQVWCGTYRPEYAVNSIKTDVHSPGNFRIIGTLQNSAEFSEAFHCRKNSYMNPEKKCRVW

- IC50, inhibition of Abz-dR-G-L-EDDnp cleavage by rhNEP (endopeptidase activity): 40 µM
Binder: CQRFSR (spacer -HN-(CH2)6-CO- (amino-hexanoic-acid) between Cys and Gln) [NH2-C-(C6-polyethylene)QRFSR-COOH]
